Square brackets hold non-standard residues; d marks the D form. Ends that are not written are not given here. APPA = 2-aminophenyl pentanoic acid; hArg = N=C(N)NCCCC[C@H](N)C(=O)O; Cit = NC(=O)NCCC[C@H](N)C(=O)O; Nle = CCCC[C@H](N)C(=O)O; Aib = CC(C)(N)C(=O)O
T1: ANGPTL3 (Homo sapiens, UniProt Q9Y5C1)
T1 construct: In humans, Evinacumab (a therapeutic mAb developed against ANGPTL3) caused a dose-dependent reduction; host or cells: human subjects (circulating endogenous protein)
T1 sequence (Q9Y5C1 17-460): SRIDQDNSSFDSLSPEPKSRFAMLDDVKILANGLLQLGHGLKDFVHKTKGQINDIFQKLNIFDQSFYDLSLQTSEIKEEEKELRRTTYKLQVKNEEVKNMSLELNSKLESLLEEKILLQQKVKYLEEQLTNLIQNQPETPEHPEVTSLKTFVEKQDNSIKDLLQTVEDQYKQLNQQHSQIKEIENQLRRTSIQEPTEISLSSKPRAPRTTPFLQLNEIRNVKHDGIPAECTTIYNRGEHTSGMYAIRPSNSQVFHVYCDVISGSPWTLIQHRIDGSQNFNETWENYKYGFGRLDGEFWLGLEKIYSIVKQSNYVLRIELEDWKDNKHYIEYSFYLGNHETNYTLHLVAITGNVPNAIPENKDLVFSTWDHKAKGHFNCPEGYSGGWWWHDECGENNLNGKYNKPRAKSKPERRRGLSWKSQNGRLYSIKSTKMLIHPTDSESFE


Test system: Anti-ANGPTL3 polyclonal antibody (ABC83, Sigma)
Experiment: Affinity determination of peptides with anti-ANGPTL3 antibody by surface plasmon resonance (Biacore T200)
Type: binding
Conditions: SPR, peptide 1 mM in 1×PBS over immobilized anti-ANGPTL3 pAb, 25° C., response 5 s before end of injection
Method: Affinity of novel peptides of the present invention with anti-ANGPTL3 antibody ‘ANG’ was analysed by surface plasmon resonance (SPR), using a Biacore instrument (Biacore T200, GE Healthcare). SPR experiments were performed at […] with a BIACORE T200 apparatus (GE Healthcare, Uppsala, Sweden).
Surface Preparation: (Procedure for Antibody immobilization) Series S Sensor Chip CM5 surface was activated by a 7-min injection of EDC-NHS. Anti-ANGPTL3 polyclonal antibody (ABC83, Sigma), diluted to 4.5 μg/mL in 10 mM acetate buffer (pH 4.0), was immobilized on one of the four flow cells of a Series S Sensor Chip CM5 with the aim of 10000 RU (resonance units) using amine-coupling. The surface was blocked with 1M ethanolamine (pH 8.5). One flow cell was immobilized as blank for reference subtraction (without antibody). 1×PBS was used as running buffer.
Binding experiments: 1 mM stock of novel peptides of the present invention were made in 1×PBS and binding studies were conducted by passing over blank as well as ligand (anti-ANGPTL3 pAb) immobilized surface. Each cycle consisted of 120 s analyte (novel peptides of the present invention) injection at a flow rate of 10 μL/min (the association phase), followed by a dissociation phase of 300 s. Purified human recombinant ANGPTL3 (FLAG-tag, 91009-1, bps bioscience) was used as positive control (1 μM) and was analyzed under identical condition. Complete dissociation of ANGPTL3 and anti-ANGPTL3 antibody interaction was achieved by regenerating surface with 10 mM glycine/HCl (pH 2.0) for 40 s at a flow rate of 10 μl/min injection.
Data Analysis: The data was analyzed using the Biacore T200 Evaluation software. All the curves were initially reference-subtracted (from blank immobilized surface) and then subtracted from zero analyte concentration. Baselines were adjusted to zero for all curves and data was presented as Relative response or binding RU (Average of 5 s window) 5 s before end of sample injection.
Affinity of novel peptides of vaccine with ANGPTL3 antibody ANG were analysed by surface plasmon resonance (SPR), using a Biacore instrument (Biacore T200, GE Healthcare). SPR experiments were performed at 25° C. with a BIACORE T200 apparatus (GE Healthcare, Uppsala, Sweden).

| Molecule | Relative response [RU] |
| --- | --- |
| 1 (RFAMLDDVKILANGLLQLGHGLKDFVHKTKGQI; artificial ANGPTL3 peptide) [compound 1] | 4832.6 |
| 2 (R[APPA]AMLDDVKILANGLLQLGHGLKDFVHKTKGQI) [compound 2] | 5674 |
| 5 (CRFAM[Nle]DDVKILANGLLQLGHGLKDFVHKTKGQI) [compound 5] | 5850 |
| 6 (RFAMLDDV[Cit]ILANGLLQLGHGLKDFVHKTKGQI) [compound 6] | 6084.1 |
| 49 (CRFAMLDDVKILANGLLQLGHGLKDFVHKTKGQI; artificial ANGPTL3 peptide) [compound 49] | 5464.1 |
| 78 (RF[Aib]MLDDVKILANGLLQLGHGLKDFVHKTKGQI) [compound 78] | 5539.6 |
| 79 ([Cit]FAMLDDV[Cit]ILANGLLQLGHGLKDFVHKTKGQI) [compound 79] | 6152.5 |
| 80 ([hArg]FAMLDDVKILANGLLQLGHGLKDFVHKTKGQI) [compound 80] | 5308.2 |
| 82 (C[Cit]FAMLDDV[Cit]ILANGLLQLGHGLKDFVHKTKGQI) [compound 82] | 5518.3 |
| 83 (C[hArg]FAMLDDVKILANGLLQLGHGLKDFVHKTKGQI) [compound 83] | 5895.2 |
| 84 (CRF[Aib]MLDDVKILANGLLQLGHGLKDFVHKTKGQI) [compound 84] | 5813.7 |
| 85 (C[Cit]FAMLDDVLILANGLLQLGHGLKDFVHKTKGQI) [compound 85] | 4924.7 |
| 86 (CR[APPA]AMLDDVKILANGLLQLGHGLKDFVHKTKGQI) [compound 86] | 5130.1 |
| 87 (CRFAMLDDV[Cit]ILANGLLQLGHGLKDFVHKTKGQI) [compound 87] | 5820.9 |

Biological target: T1, ANGPTL3
Experiment: not given
Conditions: humans, dose-dependent; cited from earlier work

| Molecule | reduction in LDL cholesterol levels | reduction in fasting triglyceride levels |
| --- | --- | --- |
| Evinacumab | up to 23% | up to 76% |

Biological target: Anti-ANGPTL3 polyclonal antibody (ABC83, Sigma)
Experiment: SPR (Biacore T200), antibody immobilised on CM5, peptide as analyte at 1 mM
Conditions: not given

| Relative response [RU] | Molecule |
| --- | --- |
| 5520 | C[Cit]FAMLDDV[Cit]ILANGLLQLGHGLKDFVHKTKGQI [Peptide of SEQ ID NO. 82 (C-Cit-FAMLDDV-Cit-…)] |
| 5810 | CRF[Aib]MLDDVKILANGLLQLGHGLKDFVHKTKGQI [Peptide of SEQ ID NO. 84 (C-RF-Aib-…)] |
| 4830 | RFAMLDDVKILANGLLQLGHGLKDFVHKTKGQI [Peptide of SEQ ID NO. 1 (…)] |
| 5130 | CR[APPA]AMLDDVKILANGLLQLGHGLKDFVHKTKGQI [Peptide of SEQ ID NO. 86 (C-R-APPA-…)] |
| 5900 | C[hArg]FAMLDDVKILANGLLQLGHGLKDFVHKTKGQI [Peptide of SEQ ID NO. 83 (C-Har-…)] |
| 6080 | RFAMLDDV[Cit]ILANGLLQLGHGLKDFVHKTKGQI [Peptide of SEQ ID NO. 6 (RFAMLDDV-Cit-…)] |
| 6150 | [Cit]FAMLDDV[Cit]ILANGLLQLGHGLKDFVHKTKGQI [Peptide of SEQ ID NO. 79 (Cit-FAMLDDV-Cit-…)] |
| 4920 | C[Cit]FAMLDDVLILANGLLQLGHGLKDFVHKTKGQI [Peptide of SEQ ID NO. 85 (C-Cit-…)] |
| 5820 | CRFAMLDDV[Cit]ILANGLLQLGHGLKDFVHKTKGQI [Peptide of SEQ ID NO. 87 (C-RFAMLDDV-Cit-…)] |
| 5540 | RF[Aib]MLDDVKILANGLLQLGHGLKDFVHKTKGQI [Peptide of SEQ ID NO. 78 (RF-Aib-…)] |
| 5670 | R[APPA]AMLDDVKILANGLLQLGHGLKDFVHKTKGQI [Peptide of SEQ ID NO. 2 (R-APPA-…)] |
| 5850 | CRFAM[Nle]DDVKILANGLLQLGHGLKDFVHKTKGQI [Peptide of SEQ ID NO. 5 (CRFAM-Nle-…)] |
| 5460 | CRFAMLDDVKILANGLLQLGHGLKDFVHKTKGQI [Peptide of SEQ ID NO. 49 (…)] |
| 5310 | [hArg]FAMLDDVKILANGLLQLGHGLKDFVHKTKGQI [Peptide of SEQ ID NO. 80 (Har-…)] |

Reference: US20220380425A1, “ANGPTL3 BASED VACCINE FOR THE TREATMENT OF LIVER DISEASE” (CADILA HEALTHCARE LIMITED, priority 2019, published 2022)
